According to PMC3432979:
Like-named read-outs stand apart in the source and are kept apart here.

Tests used:
[1] = molecular target: HLA-DR1 (DRα1*0101/DRβ1*0101) refolded in the absence of peptide; experiment: IC50 APL stability assay (peptide binding to DR1); conditions: read off a plot
[2] = molecular target: HLA-DR1 (DRα1*0101/DRβ1*0101) with the influenza hemagglutinin peptide HA306-318 (human | influenza virus); experiment: SPR
[3] = molecular target: HLA-DR4 (DRα1*0101/DRβ1*0401) with the influenza hemagglutinin peptide HA306-318 (human | influenza virus); experiment: SPR
[4] = molecular target: HLA-DR1 (DRα1*0101/DRβ1*0101) with the influenza hemagglutinin peptide HA306-318 (human | influenza virus); experiment: SPR; remark: listed apart in the source
[5] = molecular target: HLA-DR4 (DRα1*0101/DRβ1*0401) with the influenza hemagglutinin peptide HA306-318 (human | influenza virus); experiment: SPR; remark: listed apart in the source
[6] = molecular target: HLA-DR4 (DRα1*0101/DRβ1*0401) with the influenza hemagglutinin peptide HA306-318 (human | influenza virus); experiment: SPR; remark: listed apart in the source
[7] = molecular target: HLA-DR1 (DRα1*0101/DRβ1*0101) with the influenza hemagglutinin peptide HA306-318 (human | influenza virus); experiment: SPR; remark: listed apart in the source
[8] = molecular target: HLA-DR4 (DRα1*0101/DRβ1*0401) with the influenza hemagglutinin peptide HA306-318 (human | influenza virus); experiment: SPR; remark: listed apart in the source
[9] = molecular target: HLA-DR1 (DRα1*0101/DRβ1*0101) with the influenza hemagglutinin peptide HA306-318 (human | influenza virus); experiment: SPR; remark: listed apart in the source
[10] = molecular target: HLA-DR4 (DRα1*0101/DRβ1*0401) with the influenza hemagglutinin peptide HA306-318 (human | influenza virus); experiment: SPR; remark: listed apart in the source
[11] = molecular target: HLA-DR1 (DRα1*0101/DRβ1*0101) with the influenza hemagglutinin peptide HA306-318 (human | influenza virus); experiment: SPR; remark: listed apart in the source

Question: With HA306-318 peptide (wild-type HA) K310F as the substance, how does the IC50 ([1]; parent: est. 12) read?
Answer: 0.008 µM

Question: For HA306-318 peptide (wild-type HA) V309E, which IC50 ([1]; parent: est. 12) is on record?
Answer: 0.03 µM

Question: Which IC50 ([1]; parent: est. 12) does the source give for HA306-318 peptide (wild-type HA) K310V here?
Answer: 0.01 µM

Question: How did the IC50 ([1]; parent: est. 12) turn out when HA306-318 peptide (wild-type HA) V309R was run?
Answer: 0.021 µM

Question: How did the IC50 ([1]; parent: est. 12) turn out when HA306-318 peptide (wild-type HA) N312Q was run?
Answer: 0.011 µM

Question: For HA306-318 peptide (wild-type HA) K307S, which IC50 ([1]; parent: est. 12) is on record?
Answer: 0.022 µM

Question: Which results are given for “HA1.7 TCR (soluble, extracellular variable and constant domains with an engineered disulphide link)”?
Answer: Kd [2]: 36 µM; Kd [3]: 291 µM; Kd [4]: 28 µM; Kd [5]: 89 µM; Kd [6]: 55 µM; Kd [7]: 62 µM; Kd [8]: 48 µM; Kd [9]: 204 µM; Kd [10]: 1270 µM; dH [10]: 16 kcal/mol; Kd [11]: 531 µM; dH [11]: 18 kcal/mol

Question: With HA306-318 peptide (wild-type HA) N312F as the substance, how does the IC50 ([1]; parent: est. 12) read?
Answer: 0.006 µM

Question: For HA306-318 peptide (wild-type HA) N312S, which IC50 ([1]; parent: est. 12) is on record?
Answer: 0.012 µM

Question: HA306-318 peptide (wild-type HA) N312T was tested. Which IC50 ([1]; parent: est. 12) did it give?
Answer: 0.015 µM

Question: HA306-318 peptide (wild-type HA) Y308A was tested. Which IC50 ([1]; parent: est. 13) did it give?
Answer: 22 µM

Question: Which IC50 ([1]; parent: est. 12) does the source give for HA306-318 peptide (wild-type HA) N312K here?
Answer: 0.018 µM

Question: For HA306-318 peptide (wild-type HA) K315H, which IC50 ([1]; parent: est. 12) is on record?
Answer: 0.013 µM
